Target: the molecule itself
Test: cryo-EM structure; purified RodA-PBP2 complex in 0.02% DDM, 350 mM NaCl, 20 mM HEPES pH 7.5; Titan Krios 300 kV; low-resolution maps

B1: Escherichia coli PBP2, wild type, of ^EcRodA-PBP2^WT (cryo-EM sample) (enzyme, UniProt P0AD65 1-633, looked up)
chain: MKLQNSFRDYTAESALFVRRALVAFLGILLLTGVLIANLYNLQIVRFTDYQTRSNENRIKLVPIAPSRGIIYDRNGIPLALNRTIYQIEMMPEKVDNVQQTLDALRSVVDLTDDDIAAFRKERARSHRFTSIPVKTNLTEVQVARFAVNQYRFPGVEVKGYKRRYYPYGSALTHVIGYVSKINDKDVERLNNDGKLANYAATHDIGKLGIERYYEDVLHGQTGYEEVEVNNRGRVIRQLKEVPPQAGHDIYLTLDLKLQQYIETLLAGSRAAVVVTDPRTGGVLALVSTPSYDPNLFVDGISSKDYSALLNDPNTPLVNRATQGVYPPASTVKPYVAVSALSAGVITRNTTLFDPGWWQLPGSEKRYRDWKKWGHGRLNVTRSLEESADTFFYQVAYDMGIDRLSEWMGKFGYGHYTGIDLAEERSGNMPTREWKQKRFKKPWYQGDTIPVGIGQGYWTATPIQMSKALMILINDGIVKVPHLLMSTAEDGKQVPWVQPHEPPVGDIHSGYWELAKDGMYGVANRPNGTAHKYFASAPYKIAAKSGTAQVFGLKANETYNAHKIAERLRDHKLMTAFAPYNNPQVAVAMILENGGAGPAVGTLMRQILDHIMLGDNNTDLPAENPAVAAAEDH
notes: Forms dimers of the RodA-PBP2 complex when overexpressed; also called ^EcPBP2; ^EcWT; source: overexpressed, purified
stoichiometry N: 2
